The target in the assay is pre-dimerized IMPα2/IMPβ1 heterodimer (GST-fused mouse proteins) (mouse, UniProt P52293 1-529; P70168 1-876). Description: AlphaScreen or HTRF. The note with it: both partners purified. For orientation: Alpha assays give light when donor and acceptor beads are brought close together.

B1: His6-GFP-fused wt P-CTD (rabies virus P-protein C-terminal domain) (domain or fragment)
chain: VAQVAPGPPALEWSATNEEDDLSVEAEIAHQIAESFSKKYKFPSRSSGIFLYNFEQLKMNLDDIVKEAKNVPGVTRLAHDGSKIPLRCVLGWVALANSKKFQLLVEADKLSKIMQDDLNRYTSC
Turning to B1, the affinity, expressed as Kd, was 1.7 ± 0.6 nM.

The values are drawn from article PMC4777398 (PLoS ONE, 2016).
